Test results as given in US20260209387A1, “SINGLE-DOMAIN ANTIBODY FOR INHIBITION OF NEUTROPHIL ELASTASE ACTIVITY” (UNIVERSITE DE LIEGE, priority 2023, published 2026).
One block for each molecule: values may come before it. Peptide text beside a SMILES is read from it. * marks the point of attachment. MeOSuc = COC(=O)CCC(=O)*; CH2Cl = ClC*

Experiments:
[1] = system: hNE-induced alveolar-capillary damage; test: hNE-induced acute lung injury mouse model; assay type: in vivo, mice; conditions: nasal instillation 15 min prior to hNE 25 μg; molar ratio Nb/HNE 4/1
Experimental: The in vivo efficacy of NbE201 was determined using a mouse model of acute lung injury induced by nasal instillation of HNE (L agente et al., 2009, American Thoracic Society International Conference Abstracts. (American Thoracic Society), A5668. doi: 10.1164/ajrccm-conference.2009.179.1_MeetingAbstracts.A5668). […]
It was determined with the hemoglobin assay kit (Sigma) and performed according to the manufacturer's instructions. […] A measurement of the optical density at 400 nm allowed the quantification of this stable complex. […]
Histological sections of the lung were digitized using a panoramic scan 2 (3[…]). […] This semi-automated analysis made it possible to quantify the damaged alveolar surface. […] The percentage of injured surface was determined by the ratio: % injured area=(injured area/alveolar area)×100

hNE = biological target: T1, hNE (Homo sapiens, UniProt P08246); test: hNE inhibition, hydrolysis of elastin (Elastin-CongoRed); assay type: biochemical
T1 construct: purchased Elastin Products Company (EPC)
T1 sequence (P08246 30-247): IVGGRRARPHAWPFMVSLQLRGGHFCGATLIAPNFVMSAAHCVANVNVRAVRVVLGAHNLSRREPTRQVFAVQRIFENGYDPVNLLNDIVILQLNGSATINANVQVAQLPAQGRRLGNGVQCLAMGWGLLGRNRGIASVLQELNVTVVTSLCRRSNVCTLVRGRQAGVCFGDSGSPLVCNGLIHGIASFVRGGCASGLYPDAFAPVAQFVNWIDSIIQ
Experimental: 1.6.2. Inhibition of the hydrolysis of elastin, a natural substrate of hNE. […] The samples were incubated for 16 hours at 37° C. with orbital shaking (900 rpm). The samples were then centrifuged at 90′000 g for 30 minutes at 4° C. to separate the insoluble Elastin from the digested and soluble molecule fragments. The soluble fraction was transferred into a 384-wells clear plate and the absorbance of Congo-red was measured at 495 nm in a SpectraMax M2e Microplates Reader (Molecular Devices, California, USA). The absorbance of the samples at different inhibitor: hNE molar ratios was compared to that measured in the absence of inhibitor, to determine the residual hNE activity. A sample of Elastin-Congo red without elastase was used as blank.

[2] = biological target: T2, proteolytic (elastase) activity of cystic fibrosis patient sputa (Homo sapiens, UniProt P08246); test: Sputum proteolytic activity inhibition, cystic fibrosis sputa; assay type: biochemical; conditions: exposure time 0
T2 construct: Sputa from patients with cystic fibrosis, COPD or ciliary diskenisia above 18 years old were collected; from tissue; host or cells: expectorated sputum of patients with cystic fibrosis, COPD or ciliary dyskinesia
T2 sequence (P08246 30-267): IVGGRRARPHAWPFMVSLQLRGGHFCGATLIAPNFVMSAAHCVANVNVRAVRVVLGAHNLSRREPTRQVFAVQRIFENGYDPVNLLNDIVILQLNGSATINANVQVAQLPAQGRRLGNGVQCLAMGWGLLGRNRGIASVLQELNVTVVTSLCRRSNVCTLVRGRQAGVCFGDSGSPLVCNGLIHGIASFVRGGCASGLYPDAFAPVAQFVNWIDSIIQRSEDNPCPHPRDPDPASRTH
Experimental: 2.2.2 Evaluation of the proteolytic activity inhibition in CF, COPD and ciliary diskenisia sputa. […] Sputa collection procedures were evaluated by the local ethic committee (comité d'Ethique Hospitalo-Facultaire des Cliniques universitaires Saint-Luc) and approved under the Belgian registration number B4032021000071.
Sputum proteolytic activity was assessed by following with a spectrophotometer the absorbance at 410 nm of suc-Ala-Ala-Pro-Val-pNA degradation, the chromogenic hNE substrate. Sputa were classified as mucoid, muco-purulent or purulent (Serisier et al., 2009, Respir Res, 10 (1): 63. doi: 10.1186/1465-9921-10-6). According to the experiment, 10 to 20 mg of sputum were weighted in a 96-well plate. ISVDs were then added to the sputum samples and pre-incubated at 37° C. during different periods of time. The hNE substrate was diluted to a concentration of 1 mM in a tris buffer (0.1M tris, 0.5M NaCl, 0.01% Sodium azide (NaN3), pH 7.5) and 50 μl of this solution were added to the wells. The substrate degradation was followed during 50 min. […] Slopes were then calculated from the regression line drawn from the absorbance measurements and were expressed as a percentage of the sputum proteolytic activity without ISVDs.

[3] = Aggregates detection by Nanoparticle Tracking Analysis; assay type: physicochemical; conditions: 0.25 mg/ml, after nebulization
Experimental: 2.3.5 Aggregates Detection. Protein aggregates were visualized by Nanoparticle Tracking Analysis (NTA) (ZetaView, 220 Twin Laser, Particle Metrix, Ammersee, Germany), a technique used for measuring single particle size and concentration. NbE201, NbE201-PEG10 and NbE201-PEG40 solutions (0.25 mg/ml) were analysed before and after nebulization. 11 positions were analysed for which following parameters were used: • Laser wavelength: 488 nm • Scatter, no fluorescence • Sensitivity: 80 • Shutter: 100

[4] = Physical stress (nebulization, agitation, freeze/thaw): concentration by A280 nm before/after centrifugation; assay type: physicochemical; conditions: for Initial concentration percentage after centrifugation: 10 000 g 10 min
Experimental: A 0.25 mg/ml solution of NbE201, NbE201-PEG10 or NbE201-PEG40 was prepared and divided in order to apply the following conditions: control, 1 or 4 h of agitation with a magnetic bar, nebulization, 5 or 10 freeze/thaw cycles.
2.3.1 Stability towards agitation. 100 μl of a 0.25 mg/ml ISVDs solution were agitated in a 1 ml glass vial with a 2×5 mm magnetic bar (VWR, Radnor, USA) at 200 rpm during 1 or 4 hours.
2.3.2 Stability towards Nebulization. 300 μl of a 0.25 mg/ml ISVDs solution were nebulized with a MeSH nebulizer (InnoSpire Go, Phillips, Amsterdam, The Netherlands).
2.3.3 Stability towards freezing/thawing. 100 μl of a 0.25 mg/ml ISVDs solution underwent 5 or 10 freeze/thaw (F/T) cycles. Freezing was performed in a −20° C. freezer and thawing was performed at RT.
2.3.4 Concentration measurements. Concentrations and UV spectra were measured by spectrophotometry (NanoDrop 2000/2000c spectrophotometer, ThermoFisher). Concentrations were determined based on the absorbance at 280 nm. NbE201 and NbE201-Cter mass extinction coefficients applied to the measurements were 1.888 and 1.716 (mg/mL)^−1 cm^−1 respectively. Regarding the ISVDs exposed to physical stresses, the concentration was read before and after centrifugation at 10 000 g at 4° C. for 10 min.

[5] = biological target: T3, human neutrophil elastase (human, UniProt P08246 30-247, glycans (NAG-NAG-FUC) at N109 and N204, chymotrypsinogen numbering, seen in the crystal); test: capture of hNE on streptavidin magnetic beads via biotinylated NbE34 (phage panning)
T3 construct: Purified hNE bought from Elastin Products Company; In the crystal, density is defined for I1 to Q218; also called hNE; HNE
T3 sequence: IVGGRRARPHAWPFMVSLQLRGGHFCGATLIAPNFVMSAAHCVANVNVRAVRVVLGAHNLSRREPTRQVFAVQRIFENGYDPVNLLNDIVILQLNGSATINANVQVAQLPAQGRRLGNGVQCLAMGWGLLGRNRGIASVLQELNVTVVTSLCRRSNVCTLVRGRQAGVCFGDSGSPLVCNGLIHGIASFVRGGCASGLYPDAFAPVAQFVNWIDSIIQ
Experimental: The recovery of the beads after each step was carried out on a magnetic stand for 1.5 ml Eppendorf tubes for two minutes. All the incubation steps took place at room temperature and in a shaker with vertical rotation. Washing steps were carried out with 500 μl phosphate-buffered saline solution with a detergent solution of 0.01% (PBST, PBS with 0.01%, % v/v, Tween 20). First, 0.04 mg of beads were functionalized with 4 μg of chemically biotinylated NbE34 in 1 ml of PBS. After 5 washings, the beads were incubated with 5 μg of hNE in 500 μL of PBS. A negative control tube with magnetic beads functionalized with NbE34 but without hNE was also prepared. Then, the beads in each tube were incubated in 500 μl of blocking buffer. The blocking buffer was casein 0.1% (% w/v), bovine serum albumin 0.1% (% w/v) or protein free-blocking buffer (ThermoFisher Scientific, United States) in rounds 1, 2 and 3, respectively. In the next step, 2×10¹¹ phages from the library were incubated in the positive and the negative tubes and incubated for 1 hour. The beads were washed at least 10 times with PBST (PBS containing 0.05%, % v/v, Tween 20), previous to the elution of phages with 200 μl of triethanolamine (TEA) pH 11 for 10 minutes and neutralization with 200 μl of trisaminomethane hydrochloric acid (Tris-HCl) 1M pH8. […]

Molecule: AAT: endogenous glycoprotein, covalent natural inhibitor of neutrophil elastase
protection against hNE-induced alveolar-capillary damage [1]: protects the lungs from developing alveolar-capillary damage

inhibition of hNE activity, elastin hydrolysis (hNE; [inhibitor]:[hNE] = 50): 40%
Molecule: CC(C)(C)C(=O)Oc1ccc(S(=O)(=O)Nc2ccccc2C(=O)NCC(=O)O)cc1 [Sivelestat, reference compound]

inhibition of hNE activity, elastin hydrolysis (hNE; [inhibitor]:[hNE] ratio 15): 95%
Molecule: COC(=O)CCC(=O)N[C@@H](C)C(=O)N[C@@H](C)C(=O)N1CCC[C@H]1C(=O)N[C@H](C(=O)CCl)C(C)C [EI3, methyl 4-[[(2S)-1-[[(2S)-1-[(2S)-2-[[(3S)-1-chloro-4-methyl-2-oxopentan-3-yl]carbamoyl]pyrrolidin-1-yl]-1-oxopropan-2-yl]amino]-1-oxopropan-2-yl]amino]-4-oxobutanoate, reference compound] (MeOSuc-AAPV-CH2Cl)

sputum proteolytic activity inhibition at time 0, compared with NbE201 [2]: No significant difference
B1: NbE201-PEG10: NbE201-Cter (linker SPSTPPTPSPSTPP + C-terminal cysteine) conjugated to linear 10 kDa PEG-maleimide (conjugate)
VHH: QVQLQESGGGLVQAGGSLRLSCVVPGRTISLYRMGWFRQAPGKEREFVAGINWSGDMTDYVDSVKGRFTISRDNAKNTVYLEMNSLKPEDTAIYYCTADPKLLPLADSSYGYWGQGTQVTVSSSPSTPPTPSPSTPPC
average counted particles per frame (NTA) [3]: far below that threshold
Initial concentration percentage before centrifugation ([4]; Agitation (1 h)): 98 ± 1%
Initial concentration percentage after centrifugation ([4]; Agitation (1 h)): 97 ± 2%
Initial concentration percentage before centrifugation ([4]; Agitation (4 h)): 100 ± 1%
Initial concentration percentage after centrifugation ([4]; Agitation (4 h)): 93 ± 2%
Initial concentration percentage before centrifugation ([4]; Control): 100 ± 0%
Initial concentration percentage after centrifugation ([4]; Control): 94 ± 2%
Initial concentration percentage before centrifugation ([4]; F/T 5x): 99 ± 1%
Initial concentration percentage after centrifugation ([4]; F/T 5x): 99 ± 1%
Initial concentration percentage before centrifugation ([4]; F/T 10x): 98 ± 2%
Initial concentration percentage after centrifugation ([4]; F/T 10x): 98 ± 1%
Initial concentration percentage before centrifugation ([4]; Nebulization): 85 ± 2% (***)
Initial concentration percentage after centrifugation ([4]; Nebulization): 85 ± 3%

binding result [5]: binds
B2: NbE34 (VHH)
VHH: QVQLQESGGGLVQPGGSLRLSCAASGFTLDYHAIGWFRQAPGKEREGVSCISSSGGRADYADSVKGRFTISRDNAKNTVYLQMNSLKPEDTAVYYCATRCAVVGGTYYYGMDYWGKGTQVTVSS
modifications: chemically biotinylated (sites not given)
notes: It was used to capture hNE on streptavidin beads for the panning; also called biotinylated capture ISVD NbE34
